This is an account of results in PMC6925130, “Cleaved CD31 as a target for in vivo molecular imaging of inflammation” (Scientific Reports, 2019).

Broadly, the tissue uptake is the share of the injected amount in each gram of the tissue. By share remaining is commonly meant what is left of the initial amount, in per cent. Lower therefore signals more turnover. The fraction unbound is free concentration divided by total concentration. Low readings indicate little free substance, high ones much free substance. Usually logD stands for lipophilicity at a set pH, counting ionised and neutral species. Low readings indicate lower lipophilicity, high ones higher lipophilicity.

Each structure is given as a SMILES string. Non-standard residues stand in square brackets, D forms with d. Residues, ends and D or L forms follow the SMILES beside them. *: point of attachment. HYNIC = NNc1ccc(C(=O)*)cn1; PEG3 = NCCOCCOCCOCCC(=O)O

Series [1] deals with turpentine injected hindlimb (sterile acute inflammation). Put plainly: SPECT/CT and PET/MRI imaging of turpentine oil-induced sterile acute inflammation. It counts as in vivo, male Wistar rats. Particulars: turpentine injected hindlimb / saline injected hindlimb; PET/MRI 1 h p.i., retro-orbital ≈20 MBq; n = 23. Here is the method:
Two to 3-month-old adult male Wistar rats, weighing 250–300 g were used. The animals were housed in a controlled environment. The procedures and animal care complied with the principles formulated by the National Society for Medical Research. All methods were performed in accordance with the guidelines of the French Directorate of Veterinary Services (authorization: No. 75-214). All methods were approved by the animal ethics committee of the Claude Bernard Institute (APAFIS #14821, Paris, France). Aseptic inflammation was obtained according to a standardized procedure consisting of turpentine oil injection characterized by a massive local influx of activated inflammatory cells[33],[34]. […]
Imaging procedures of ^99mTc-HYNIC-P8RI (D and L) were performed using Single Photon Emission Computed Tomography coupled to X-ray computed tomography (SPECT/CT). […] Reconstructed slices were visually assessed in 3 planes (axial, coronal, and sagittal). […]
Three-dimensional Regions of Interests (3D-ROIs) were placed on the inflammatory muscles and the mean signal per volume unit (kBq/mL) was measured. Assuming a tissue density of 1 g/mL, the radioactivity contained in the ROI was divided by the dose administered to the animal and the volume of the ROI to obtain an imaging ROI-derived % ID/g. […]

Another series in a line: in vivo. On the set-up: species or system male Wistar rats. The conditions noted are these: male, Wistar, rat, iv, 30 MBq, total radioactivity, Biodistribution. Here is the method:
Biodistribution of ^99mTc-HYNIC-D-P8RI was performed 15, 30, 90 min and 24 h post-injection. Animals (n = 3 for each time point) were injected intravenously through penis vein with 30 ± 3 MBq of ^99mTc-HYNIC-D-P8RI. They were sacrificed by isoflurane overdose and blood, heart, liver, thyroid, spleen, kidney, brain, intestine and muscle tissues were harvested and counted using a well counter. Results were expressed as the percentage of injected dose per gram of tissue (% ID/g). To characterize radiotracer elimination and potential degradation, rat urine was collected 90 min p.i, passed through a 0.22 µm PVDF filter (Durapore^TM 13 mm, Merck), and analyzed using RP-HPLC as described in Supplementary Data.

Series [2] can be described thus: in vitro. It counts as in vitro ADME. The conditions noted are these: human, plasma. The protocol:
Plasma stability was assessed in triplicate at 1, 2 and 4 h after incubation of the radiolabeled D-P8RI peptide (final concentration 100 pmol/mL) in human plasma at 37 °C with RCP ≥94%. After precipitation of plasma proteins with acetonitrile and centrifugation (15000 × g, 10 min), the supernatant was analyzed by RP-HPLC as described in Supplementary Data. Plasma stability was expressed in RCP (%).

A short description of series [3]: in vitro. It counts as in vitro ADME. The conditions noted are these: human, plasma. Here is the method: Protein binding of the purified radiolabeled D-P8RI peptide (final concentration 100 pmol/mL) was determined in triplicate after 0, 0.5, 1, 2, 3 and 4 h of incubation in fresh human plasma (collected in citrate tubes) at 37 °C and analyzed after size exclusion chromatography (illustra Microspin G-50 Columns, Sephadex G-50, GE Healthcare, UK). Simultaneously, radiolabeled peptide was incubated in PBS at 37 °C as a control. G-50 columns were prespun at 2000 × g for 1 min then 20 μL of mixture was added and the column was centrifuged at 2000 × g for 2 min. Columns and eluates were counted on a Wallac Wizard 3″ 1480 (Perkin Elmer, MA, USA), then protein binding was calculated using the following activity (A) ratio: A eluate/(A column + A eluate).
The source holds these as a separate data set.

A short description of a further series: physchem. It counts as physicochemical. Particulars: pH 7.2. Here is the method: 500 µL of^ 99mTc-HYNIC-D-P8RI in PBS (pH 7.2) was added to 500 µL of octanol in a 1.5 mL conical vial. After 15 min of vortexing, the vial was centrifuged at 5000xg for 3 min. A 100 µL aliquot of both phases was collected in triplicate and counted with a gamma counter then log P values were calculated.

For `O=C[C@H]([18F])[C@@H](O)[C@H](O)[C@H](O)CO` [[^18F]FDG, 2-deoxy-2-[^18F]fluoro-D-glucose], the “Mean signal ratio (TIH/SIH), PET/MRI” value in series [1] was 4.49 ± 0.43.
With `CC(C)C[C@@H](NC(=O)[C@@H](C)NC(=O)[C@H]1CCCN1C(=O)[C@@H](Cc1c[nH]c2ccccc12)NC(=O)[C@@H](CCCCN)NC(=O)CCOCCOCCOCCNC(=O)c1ccc(NN)nc1)C(=O)N[C@H](Cc1ccccc1)C(=O)N[C@@H](C(=O)N[C@H](CCCNC(=N)N)C(=O)O)C(C)C` [^99mTc-HYNIC-D-P8RI, metal not drawn] ({HYNIC-PEG3}-[dK][dW][dP][dA][dL][dF][dV][dR]-OH), the tissue uptake at 1.5 h in the series “in vivo” (bladder) stood at 61.4 ± 13.4 %ID/g. Also, in the series “in vivo” (blood), the tissue uptake at 0.25 h worked out at 9.74 ± 1.21 %ID/g and the tissue uptake at 24 h is 0.04 ± 0.02 %ID/g. Further, the tissue uptake at 1.5 h in “in vivo” (kidney) is 14 ± 2.93 %ID/g. Further, in “in vitro [2]”, the fraction remaining at 1 h, 100 pmol/mL came out at 93.02 ± 0.04% and the amount remaining at 2 h, 100 pmol/mL was 91.05 ± 0.02%. In the series “in vitro [3]”, this compound showed a free fraction (fraction unbound) at 0 h, 100 pmol/mL of 0.928 and a fraction unbound at 0.5 h, 100 pmol/mL of 0.952. The logD in the series “physchem” is -2.92 ± 0.04.
